Substrate in this series: COc1cc2ccc(=O)oc2cc1O
Nature of the series: purified protein. To be noted: Fe2+, 2-oxoglutarate and ascorbate, pH 8.0 (methods b28 say optimal pH 7.0), 31.5 °C, 10 min, 0.1 M potassium phosphate. In kind it is biochemical, Arabidopsis thaliana.

One protein from publication PMC5888981, “Scopoletin 8-hydroxylase: a novel enzyme involved in coumarin biosynthesis and iron-deficiency responses in Arabidopsis” (Journal of Experimental Botany, 2018) can be followed below.

As usually defined, the Km is the concentration of substrate that gives half-maximal velocity.

B1: S8H (scopoletin 8-hydroxylase; At3g12900 oxidoreductase) (Arabidopsis thaliana) (protein)
chain: GINFEDQTTLFNFVVREGNGVKGMIDSGLSSVPRPFVQPLSERIPTQKALTCEATQPIDLSNLDGPQHKEVAKQIVEAAETLGFFQVVNHGVSVELLELLKSSAHEFFAQAPEEKSMYLKEVSPSKLVKYGTSFVPDKEKAIEWKDYVSMLYTNDSEALQHWPQPCREVALEFLNSSMEMVKNVVNILMENVGVTLEEEKMNGLMGTKMVNMNYYPTCPSPELTVGVGRHSDMGMLTVLLQDGIGGLYVKLDNGEWAEIPPVHGALVINIGDTLQILSNGKYKSAEHRVRTTNIGSRVSVPIFTAPNPSQKVGPLPEVVKRDGVARYKEFLFQDYMNNFFGQPHDGKKSLDFARAE
notes: S8H ORF in pET28a+ (BamHI/XhoI), 6xHis-tagged, no tag removal described; E. coli Rosetta 2; TALON purified
On to B1, for which the Km is recorded as 11 ± 2 µM and the kcat is 1.73 ± 0.09 s^–1.
